From publication PMC8670242, “Functional Characterization and Structural Insights Into Stereoselectivity of Pulegone Reductase in Menthol Biosynthesis” (Frontiers in Plant Science, 2021) come the findings set out here.

Substrate in series [1]: CC(C)=C1CC[C@H](C)CC1=O
As to the kind of experiment: chiral GC of menthone/isomenthone formed, Michaelis-Menten. The conditions noted are these: 10 mM NADPH with glucose-6-phosphate/G6PDH regeneration, pH 7.5, 31 °C, n-hexane overlay. Type of series: biochemical, Mentha x piperita.

Substrate in series [2]: CC(C)=C1CC[C@@H](C)CC1=O
The series is described as above. The format is biochemical, Mentha x piperita. To be noted: 10 mM NADPH with glucose-6-phosphate/G6PDH regeneration, pH 7.5, 31 °C, n-hexane overlay.

B1: MpPR (Mentha x piperita) (protein)
chain: MVMNKQIVLNNYINGSLKQSDLALRTSTICMEIPDGCNGAILVKNLYLSVNPYLILRMGKLDIPQFDSILPGSTIVSYGVSKVLDSTHPSYEKGELIWGSQAGWEEYTLIQNPYNLFKIQDKDVPLSYYVGILGMPGMTAYAGFFEICSPKKGETVFVTAAAGSVGQLVGQFAKMFGCYVVGSAGSKEKVDLLKNKFGFDDAFNYKEESDYDTALKRHFPEGIDIYFDNVGGKMLEAVINNMRVHGRIAVCGMVSQYSLKQPEGVHNLLKLIPKQIRMQGFVVVDYYHLYPKFLEMVLPRIKEGKVTYVEDISEGLESAPSALLGVYVGRNVGNQVVAVSRE
notes: pET28a His-tag fusion, E. coli BL21(DE3), Ni-NTA and gel filtration; homodimer; EC 1.3.1.81
As a reminder, the Km is the concentration of substrate that gives half-maximal velocity. On to B1, for which, in series [1], the Km turned out to be 8.63 µM and the kcat is on record as 1595.06 10^-4 s^-1. In series [2], the Km turned out to be 3.00 µM and the kcat is given as 863.66 10^-4 s^-1.
